B1: mRNA-decapping enzyme 1A (Homo sapiens), Q9NPI6 (parent)
chain: MEALSRAGQEMSLAALKQHDPYITSIADLTGQVALYTFCPKANQWEKTDIEGTLFVYRRSASPYHGFTIVNRLNMHNLVEPVNKDLEFQLHEPFLLYRNASLSIYSIWFYDKNDCHRIAKLMADVVEEETRRSQQAARDKQSPSQANGCSDHRPIDILEMLSRAKDEYERNQMGDSNISSPGLQPSTQLSNLGSTETLEEMPSGSQDKSAPSGHKHLTVEELFGTSLPKEQPAVVGLDSEEMERLPGDASQKEPNSFLPFPFEQLGGAPQSETLGVPSAAHHSVQPEITTPVLITPASITQSNEKHAPTYTIPLSPVLSPTLPAEAPTAQVPPSLPRNSTMMQAVKTTPRQRSPLLNQPVPELSHASLIANQSPFRAPLNVTNTAGTSLPSVDLLQKLRLTPQHDQIQTQPLGKGAMVASFSPAAGQLATPESFIEPPSKTAAARVAASASLSNMVLAPLQSMQQNQDPEVFVQPKVLSSAIPVAGAPLVTATTTAVSSVLLAPSVFQQTVTRSSDLERKASSPSPLTIGTPESQRKPSIILSKSQLQDTLIHLIKNDSSFLSTLHEVYLQVLTKNKDNHNL
partner: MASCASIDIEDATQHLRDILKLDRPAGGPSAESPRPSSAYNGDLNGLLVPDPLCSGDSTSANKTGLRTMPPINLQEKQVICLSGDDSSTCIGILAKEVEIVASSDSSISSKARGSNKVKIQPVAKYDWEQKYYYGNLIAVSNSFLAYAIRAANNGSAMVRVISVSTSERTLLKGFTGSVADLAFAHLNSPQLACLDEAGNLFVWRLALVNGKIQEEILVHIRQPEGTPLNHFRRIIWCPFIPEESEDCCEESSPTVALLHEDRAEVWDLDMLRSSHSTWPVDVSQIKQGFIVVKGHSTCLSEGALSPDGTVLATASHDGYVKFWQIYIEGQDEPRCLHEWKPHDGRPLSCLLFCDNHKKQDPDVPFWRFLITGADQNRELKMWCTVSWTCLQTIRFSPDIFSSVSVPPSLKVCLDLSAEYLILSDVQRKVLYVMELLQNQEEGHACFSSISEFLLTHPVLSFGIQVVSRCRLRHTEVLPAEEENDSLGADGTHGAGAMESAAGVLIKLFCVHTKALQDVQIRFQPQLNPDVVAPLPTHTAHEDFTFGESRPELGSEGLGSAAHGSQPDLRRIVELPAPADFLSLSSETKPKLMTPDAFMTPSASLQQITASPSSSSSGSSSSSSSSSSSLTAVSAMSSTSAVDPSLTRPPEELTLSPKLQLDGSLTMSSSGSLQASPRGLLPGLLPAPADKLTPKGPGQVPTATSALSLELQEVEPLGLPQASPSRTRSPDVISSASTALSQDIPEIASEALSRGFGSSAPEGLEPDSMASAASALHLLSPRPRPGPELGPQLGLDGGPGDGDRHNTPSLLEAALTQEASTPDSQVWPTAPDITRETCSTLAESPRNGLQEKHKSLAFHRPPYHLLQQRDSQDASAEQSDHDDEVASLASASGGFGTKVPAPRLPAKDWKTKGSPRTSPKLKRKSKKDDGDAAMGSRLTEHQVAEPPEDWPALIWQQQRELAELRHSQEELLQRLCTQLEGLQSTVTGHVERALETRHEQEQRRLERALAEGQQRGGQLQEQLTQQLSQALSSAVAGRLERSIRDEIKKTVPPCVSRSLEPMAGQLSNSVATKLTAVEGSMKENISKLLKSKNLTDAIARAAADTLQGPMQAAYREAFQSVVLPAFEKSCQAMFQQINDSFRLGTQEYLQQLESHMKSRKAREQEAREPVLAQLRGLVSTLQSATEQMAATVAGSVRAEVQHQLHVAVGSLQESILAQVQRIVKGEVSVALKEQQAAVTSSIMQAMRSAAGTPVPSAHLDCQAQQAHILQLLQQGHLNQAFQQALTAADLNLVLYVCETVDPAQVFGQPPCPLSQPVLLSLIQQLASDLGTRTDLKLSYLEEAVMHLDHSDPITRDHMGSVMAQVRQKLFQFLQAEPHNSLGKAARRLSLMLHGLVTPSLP

Variants of: B1
Details: with edc4_human EDC4, Q6P2E9

Question: How did the “effect of a mutation on the interaction” value turn out when MEALSRAGQEMALAALKAADPYITSIADLTGQVALYTFCPKANQWEKTDIEGTLFVYRRSASPYHGFTIVNRLNMHNLVEPVNKDLEFQLHEPFLLYRNASLSIYSIWFYDKNDCHRIAKLMADVVEEETRRSQQAARDKQSPSQANGCSDHRPIDILEMLSRAKDEYERNQMGDSNISSPGLQPSTQLSNLGSTETLEEMPSGSQDKSAPSGHKHLTVEELFGTSLPKEQPAVVGLDSEEMERLPGDASQKEPNSFLPFPFEQLGGAPQSETLGVPSAAHHSVQPEITTPVLITPASITQSNEKHAPTYTIPLSPVLSPTLPAEAPTAQVPPSLPRNSTMMQAVKTTPRQRSPLLNQPVPELSHASLIANQSPFRAPLNVTNTAGTSLPSVDLLQKLRLTPQHDQIQTQPLGKGAMVASFSPAAGQLATPESFIEPPSKTAAARVAASASLSNMVLAPLQSMQQNQDPEVFVQPKVLSSAIPVAGAPLVTATTTAVSSVLLAPSVFQQTVTRSSDLERKASSPSPLTIGTPESQRKPSIILSKSQLQDTLIHLIKNDSSFLSTLHEVYLQVLTKNKDNHNL [S12A;Q18A;H19A] was run?
Answer: Its value is “with no effect”.

Question: MEALSRAGQEMALAALKQADPYITSIADLTGQVALYTFCPKANQWEKTDIEGTLFVYRRSASPYHGFTIVNRLNMHNLVEPVNKDLEFQLHEPFLLYRNASLSIYSIWFYDKNDCHRIAKLMADVVEEETRRSQQAARDKQSPSQANGCSDHRPIDILEMLSRAKDEYERNQMGDSNISSPGLQPSTQLSNLGSTETLEEMPSGSQDKSAPSGHKHLTVEELFGTSLPKEQPAVVGLDSEEMERLPGDASQKEPNSFLPFPFEQLGGAPQSETLGVPSAAHHSVQPEITTPVLITPASITQSNEKHAPTYTIPLSPVLSPTLPAEAPTAQVPPSLPRNSTMMQAVKTTPRQRSPLLNQPVPELSHASLIANQSPFRAPLNVTNTAGTSLPSVDLLQKLRLTPQHDQIQTQPLGKGAMVASFSPAAGQLATPESFIEPPSKTAAARVAASASLSNMVLAPLQSMQQNQDPEVFVQPKVLSSAIPVAGAPLVTATTTAVSSVLLAPSVFQQTVTRSSDLERKASSPSPLTIGTPESQRKPSIILSKSQLQDTLIHLIKNDSSFLSTLHEVYLQVLTKNKDNHNL [S12A;H19A] was tested. Which “effect of a mutation on the interaction” value did it give?
Answer: Its value is “with no effect”.

Question: With MEALSRAGQEMSLAALKAADPYITSIADLTGQVALYTFCPKANQWEKTDIEGTLFVYRRSASPYHGFTIVNRLNMHNLVEPVNKDLEFQLHEPFLLYRNASLSIYSIWFYDKNDCHRIAKLMADVVEEETRRSQQAARDKQSPSQANGCSDHRPIDILEMLSRAKDEYERNQMGDSNISSPGLQPSTQLSNLGSTETLEEMPSGSQDKSAPSGHKHLTVEELFGTSLPKEQPAVVGLDSEEMERLPGDASQKEPNSFLPFPFEQLGGAPQSETLGVPSAAHHSVQPEITTPVLITPASITQSNEKHAPTYTIPLSPVLSPTLPAEAPTAQVPPSLPRNSTMMQAVKTTPRQRSPLLNQPVPELSHASLIANQSPFRAPLNVTNTAGTSLPSVDLLQKLRLTPQHDQIQTQPLGKGAMVASFSPAAGQLATPESFIEPPSKTAAARVAASASLSNMVLAPLQSMQQNQDPEVFVQPKVLSSAIPVAGAPLVTATTTAVSSVLLAPSVFQQTVTRSSDLERKASSPSPLTIGTPESQRKPSIILSKSQLQDTLIHLIKNDSSFLSTLHEVYLQVLTKNKDNHNL [Q18A;H19A] as the variant, how does the “effect of a mutation on the interaction” value read?
Answer: Its value is “with no effect”.

Question: For MEALSRAGQEMSLAALKQHDPYITSIADLTGQVALYTFCPKANQWEKTDIEGTLFVYRRSASPYHGFTIVNRLNMHNLVEPVNKDLEFQLHEPFLLYRNASLSIYSIWFYDKNDCHRIAKLMADVVEEETRRSQQAARDKQSPSQANGCSDHRPIDILEMLSRAKDEYERNQMGDSNISSPGLQPSTQLSNLGSTETLEEMPSGSQDKSAPSGHKHLTVEELFGTSLPKEQPAVVGLDSEEMERLPGDASQKEPNSFLPFPFEQLGGAPQSETLGVPSAAHHSVQPEITTPVLITPASITQSNEKHAPTYTIPLSPVLSPTLPAEAPTAQVPPSLPRNSTMMQAVKTTPRQRSPLLNQPVPELSHASLIANQSPFRAPLNVTNTAGTSLPSVDLLQKLRLTPQHDQIQTQPLGKGAMVASFSPAAGQLATPESFIEPPSKTAAARVAASASLSNMVLAPLQSMQQNQDPEVFVQPKVLSSAIPVAGAPLVTATTTAVSSVLLAPSVFQQTVTRSSDLERKASSPSPLTIGTPESQRKPSIILSKSQLQDTLIHSIKNDSSRLSTSHEVYLQVLTKNKDNHNL [L554S;F561R;L565S], which “effect of a mutation on the interaction” value is on record?
Answer: The value was “disrupting interaction strength”.

Question: For MEALSRAGQEMSLAALKQADPYITSIADLTGQVALYTFCPKANQWEKTDIEGTLFVYRRSASPYHGFTIVNRLNMHNLVEPVNKDLEFQLHEPFLLYRNASLSIYSIWFYDKNDCHRIAKLMADVVEEETRRSQQAARDKQSPSQANGCSDHRPIDILEMLSRAKDEYERNQMGDSNISSPGLQPSTQLSNLGSTETLEEMPSGSQDKSAPSGHKHLTVEELFGTSLPKEQPAVVGLDSEEMERLPGDASQKEPNSFLPFPFEQLGGAPQSETLGVPSAAHHSVQPEITTPVLITPASITQSNEKHAPTYTIPLSPVLSPTLPAEAPTAQVPPSLPRNSTMMQAVKTTPRQRSPLLNQPVPELSHASLIANQSPFRAPLNVTNTAGTSLPSVDLLQKLRLTPQHDQIQTQPLGKGAMVASFSPAAGQLATPESFIEPPSKTAAARVAASASLSNMVLAPLQSMQQNQDPEVFVQPKVLSSAIPVAGAPLVTATTTAVSSVLLAPSVFQQTVTRSSDLERKASSPSPLTIGTPESQRKPSIILSKSQLQDTLIHLIKNDSSFLSTLHEVYLQVLTKNKDNHNL [H19A], which “effect of a mutation on the interaction” value is on record?
Answer: Its value is “with no effect”.

Question: Which “effect of a mutation on the interaction” value does the source give for MEALSRAGQEMSLAALKQHDPYITSIADLTGQVALYTFCPKANQWEKTDIEGTLFVYRRSASPYHGFTIVNGLNMHNLVEPVNKDLEFQLHEPFLLYRNASLSIYSIWFYDKNDCHRIAKLMADVVEEETRRSQQAARDKQSPSQANGCSDHRPIDILEMLSRAKDEYERNQMGDSNISSPGLQPSTQLSNLGSTETLEEMPSGSQDKSAPSGHKHLTVEELFGTSLPKEQPAVVGLDSEEMERLPGDASQKEPNSFLPFPFEQLGGAPQSETLGVPSAAHHSVQPEITTPVLITPASITQSNEKHAPTYTIPLSPVLSPTLPAEAPTAQVPPSLPRNSTMMQAVKTTPRQRSPLLNQPVPELSHASLIANQSPFRAPLNVTNTAGTSLPSVDLLQKLRLTPQHDQIQTQPLGKGAMVASFSPAAGQLATPESFIEPPSKTAAARVAASASLSNMVLAPLQSMQQNQDPEVFVQPKVLSSAIPVAGAPLVTATTTAVSSVLLAPSVFQQTVTRSSDLERKASSPSPLTIGTPESQRKPSIILSKSQLQDTLIHLIKNDSSFLSTLHEVYLQVLTKNKDNHNL [R72G] here?
Answer: The value was “with no effect”.

— IntAct's records for PubMed 24510189
